Substitutions are numbered along the chain they refer to.
T1: BTV-8 VP7 (SEQ ID NO:6) (Bluetongue virus serotype 8, UniProt P69361 1-349)
T1 sequence: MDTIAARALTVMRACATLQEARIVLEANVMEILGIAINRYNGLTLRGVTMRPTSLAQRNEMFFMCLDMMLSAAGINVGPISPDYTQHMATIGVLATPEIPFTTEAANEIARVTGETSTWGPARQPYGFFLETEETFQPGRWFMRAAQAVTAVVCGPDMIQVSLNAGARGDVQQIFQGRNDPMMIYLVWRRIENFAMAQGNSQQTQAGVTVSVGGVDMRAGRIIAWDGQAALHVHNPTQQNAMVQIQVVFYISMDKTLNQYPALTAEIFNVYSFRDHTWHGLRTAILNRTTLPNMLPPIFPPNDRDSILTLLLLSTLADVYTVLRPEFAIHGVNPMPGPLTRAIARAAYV

T2: BTV-8 VP3 (SEQ ID NO:1) (Bluetongue virus serotype 8, UniProt P12435 1-901)
T2 sequence: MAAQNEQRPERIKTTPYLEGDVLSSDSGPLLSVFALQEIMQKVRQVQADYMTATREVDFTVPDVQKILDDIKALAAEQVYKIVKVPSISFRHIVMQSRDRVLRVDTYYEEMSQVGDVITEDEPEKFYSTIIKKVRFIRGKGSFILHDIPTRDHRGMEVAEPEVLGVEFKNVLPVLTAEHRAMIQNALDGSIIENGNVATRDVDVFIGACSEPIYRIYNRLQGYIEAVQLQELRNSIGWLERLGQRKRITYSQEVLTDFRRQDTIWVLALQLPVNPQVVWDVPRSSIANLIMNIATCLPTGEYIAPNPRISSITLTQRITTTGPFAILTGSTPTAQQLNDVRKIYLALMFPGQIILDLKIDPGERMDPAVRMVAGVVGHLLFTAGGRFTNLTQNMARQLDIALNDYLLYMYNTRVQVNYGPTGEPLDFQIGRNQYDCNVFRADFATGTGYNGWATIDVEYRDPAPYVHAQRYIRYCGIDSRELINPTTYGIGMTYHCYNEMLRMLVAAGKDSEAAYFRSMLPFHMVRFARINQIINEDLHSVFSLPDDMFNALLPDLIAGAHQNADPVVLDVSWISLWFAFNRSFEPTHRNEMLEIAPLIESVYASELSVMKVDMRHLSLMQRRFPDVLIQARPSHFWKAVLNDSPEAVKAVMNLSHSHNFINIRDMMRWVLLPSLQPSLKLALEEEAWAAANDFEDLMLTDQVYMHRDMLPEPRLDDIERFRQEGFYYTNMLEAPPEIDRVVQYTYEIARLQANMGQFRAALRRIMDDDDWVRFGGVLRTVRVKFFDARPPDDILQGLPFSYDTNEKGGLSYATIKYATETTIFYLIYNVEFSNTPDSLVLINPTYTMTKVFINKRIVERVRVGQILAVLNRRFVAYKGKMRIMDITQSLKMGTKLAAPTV

B1: BTV-8 VP3 (SEQ ID NO:2) (other)
chain: T2 sequence with M548V
B2: BTV-8 VP7 (SEQ ID NO:5) (other)
chain: T1 sequence

Assays:
BTV-8 VP7 (SEQ ID NO:6) = target: T1, BTV-8 VP7 (SEQ ID NO:6); experiment: CLP assembly on co-expression; sucrose gradient, TEM (FIG. 13)
BTV-8 VP3 (SEQ ID NO:1) = target: T2, BTV-8 VP3 (SEQ ID NO:1); experiment: particle assembly on co-expression in N. benthamiana; iodixanol gradient, TEM

Binder	binding result (BTV-8 VP7 (SEQ ID NO:6))	binding result (BTV-8 VP3 (SEQ ID NO:1))
B1	binds	–
B2	–	binds

Source: patent publication US20190136246A1 (CSIR, published 2019)
